Laboratory results taken from US7169567B1, “Screening assay utilizing the PTH receptor” (The General Hospital Corporation, priority 1998, dated 2007).
Where no end group is shown, it is not given here.

Assays:
Type in all cases: cell-based
human PTH-1 receptor = biological target: T1, human PTH-1 receptor (Homo sapiens, UniProt Q03431); assay: cAMP-stimulating activity in HKRK-B7 cells (LLC-PK1 stably transfected with human PTH-1 receptor), RIA; conditions: HKRK-B7 cells
T1 construct: expressed in transfected cells; host or cells: HKRK-B7 (LLC-PK1 stably transfected, pCDNA-1-based plasmid)
T1 sequence (Q03431 27-593): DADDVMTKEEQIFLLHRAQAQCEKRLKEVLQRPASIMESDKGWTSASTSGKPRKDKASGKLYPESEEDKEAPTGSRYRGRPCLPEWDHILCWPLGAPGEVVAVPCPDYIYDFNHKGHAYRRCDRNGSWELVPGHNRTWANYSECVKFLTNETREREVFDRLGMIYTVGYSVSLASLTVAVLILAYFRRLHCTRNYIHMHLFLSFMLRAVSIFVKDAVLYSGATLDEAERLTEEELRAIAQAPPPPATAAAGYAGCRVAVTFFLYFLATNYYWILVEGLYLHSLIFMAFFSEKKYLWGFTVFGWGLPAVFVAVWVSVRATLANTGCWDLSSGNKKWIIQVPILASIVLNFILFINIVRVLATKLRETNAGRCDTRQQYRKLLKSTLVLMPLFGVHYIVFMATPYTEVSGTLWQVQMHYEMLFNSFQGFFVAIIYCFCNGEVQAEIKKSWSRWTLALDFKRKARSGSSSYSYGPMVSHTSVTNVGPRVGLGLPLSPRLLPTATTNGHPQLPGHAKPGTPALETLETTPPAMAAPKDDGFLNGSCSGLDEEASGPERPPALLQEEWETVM
Procedure: FIG. 2. cAMP-stimulating Activity of PTH Fragments in LLC-PK1 Cells. A) Rat PTH(1–34) analog or amino-terminal rPTH fragments were tested for cAMP-stimulating activity in an LLC-P1-derived cell line (HKRK-B7) stably transfected with the human PTH-1 receptor. Cells were treated with peptide at the indicated doses for 60 min at 22° C. Intracellular cAMP was measured by RIA, as described in Experimental Procedures. Shown are combined data (mean±s.e.m.) from 3 separate experiments, each performed in duplicate. B) HKRK-B7 cells, or untransfected LLC-PK1 were treated with rPTH(1–34) or rPTH(1–14), and intracellular cAMP was measured. Shown are data (mean±s.e.m.) from a single representative experiment performed in duplicate.
FIG. 3. Alanine-scan of PTH(1–14). HKRK-B7 cells were treated with 100 mM of one of 14 different rPTH(1–14) analogs, each having a different alanine-substitution at the indicated amino acid position. The resulting cAMP levels were determined as described in Experimental Procedures. Shown are the combined data (mean±s.e.m.) from three separate experiments, each performed in duplicate. The mean (mean±s.e.m.) basal cAMP levels observed in the three experiments was 2.1±0.1 pmole/well, and the maximum response to rPTH(1–34) at 0.1 mM was 254±16 pmole/well.
Cell Culture and DNA Transfection: COS-7 and HKRK-B7 cells were cultured at 37° C. in Dulbecco's modified Eagle's medium (DMEM) supplemented with fetal bovine serum (10%); penicillin G (20 units/ml), streptomycin sulfate (20 μg/ml) and amphotericin B (0.05 μg/ml) in a humidified atmosphere containing 5% CO2. Twenty-four to 16 hours prior to assay, cells in 24-well plates were shifted to a humidified incubator containing 5% CO2 that was set at 33° C. Stock solutions of EGTA/trypsin and antibiotics were from GIBCO; fetal bovine serum was from Hyclone Laboratories (Logan, Utah). Derivation and characterization of the HKRK-B7 cell line by stable transfection of LLC-PK1 cells with a pCDNA-1-based plasmid (In Vitrogen, San Diego, Calif.) encoding the hPTH-1 receptor was described previously (Takasu, H. and Bringhurst, F., Endocrinology, in press (1998)). These cells express PTH-1 receptors at a surface density of about 1×10^6 PTH-binding sites per cell. The HKRK-B7 cells were used for functional assays 24 to 72 hours after the cell monolayer reached confluency.
(§1) Intracellular cyclic AMP: Transfected COS-7 or HKRK-B7 cells were rinsed with 500 ml of binding buffer, (50 mM Tris-HCl, pH 7.7, 100 mM NaCl, 5 mM KCl, 2 mM CaC12, 5% heat-inactivated horse serum, 0.5% heat-inactivated fetal bovine serum) and 200 ml of IBMX buffer (DMEM containing 2 mM IBMX, 1 mg/ml bovine serum albumin, 35 mM Hepes-NaOH, pH 7.4) and […] of binding buffer or binding buffer containing various amounts of peptide were added. The plates were incubated for 60 minutes at room temperature. The buffer was then withdrawn and the cells were frozen on dry ice, treated with 0.5 ml of 50 mM HCl, and refrozen. After the thawing, the lysate was diluted 30-fold in dH20 and an aliquot was analyzed for cAMP content by determined radioimmunoassay using unlabeled cAMP as a standard.
Amino-terminal peptide fragments based on the rat PTH sequence and ranging in length from PTH(1–9) to PTH(1–15) were synthesized and tested for activity in an LLC-PK1-derived cell line called HKRK-B7 which stably expresses high levels (1×10^6 receptors/cell) of the cloned human PTH-1 receptor (Takasu, H. and Bringhurst, F., Endocrinology, in press (1998)).

[1] = biological target: T2, truncated rat PTH-1 receptor (rΔNt) (Rattus norvegicus, UniProt P25961, E586G); assay: cAMP response in COS-7 cells transiently transfected with truncated rat PTH-1 receptor (rΔNt); conditions: secretin(1–27) 1 mM
T2 construct: contains an open reading frame encoding a protein of about 435 amino acid residues; expressed in transfected cells; host or cells: COS-7, transient (DEAE-dextran), pCDNA-1 based plasmid
T2 sequence (P25961 with tags, fused parts or gaps E586G): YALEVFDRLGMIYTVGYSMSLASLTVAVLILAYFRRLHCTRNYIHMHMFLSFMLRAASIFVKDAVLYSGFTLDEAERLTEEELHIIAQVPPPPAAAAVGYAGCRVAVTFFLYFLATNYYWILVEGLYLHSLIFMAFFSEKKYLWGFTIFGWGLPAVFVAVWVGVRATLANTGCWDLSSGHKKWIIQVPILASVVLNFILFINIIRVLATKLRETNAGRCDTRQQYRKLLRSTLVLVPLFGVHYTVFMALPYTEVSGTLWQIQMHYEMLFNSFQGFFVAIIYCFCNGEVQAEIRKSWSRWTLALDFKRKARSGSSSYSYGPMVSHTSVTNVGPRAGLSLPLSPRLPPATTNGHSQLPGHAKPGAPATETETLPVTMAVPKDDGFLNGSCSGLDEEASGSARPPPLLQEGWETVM
From the text: FIG. 4. PTH Responses of Intact and Truncated PTH-1 Receptors in COS-7 Cells. Shown at the top are schematics of the intact (A) and truncated (B) rat PTH-1 receptors used for transient transfection of COS-7 cells, and subsequent cAMP response assays. The conserved extracellular cysteine residues are depicted as open circles and numbered according to sequence position, and the nine amino acids of the epitope tag (HA) in rWT-HA are shaded. The tics at residue 26 and 181 indicate the endpoints of the deletion in rΔNt. Based on the predicted signal peptide cleavage site at Ala-22, residues 23–25 in rΔNt are joined to residue 182. The cAMP responses of COS-7 cells expressing the intact receptor (C) and rΔNt (D) to rPTH(1–34) (J) or rPTH(1–14) (C) are also shown. The graphs show combined data (mean±s.e.m.) from five separate experiments, each performed in duplicate. […]
FIG. 6. Specificity of the Truncated Ligand and PTH Receptor. COS-7 cells transiently transfected with either rWT-HA (A), rΔNt (B), or the intact rat secretin receptor (C), were treated with the indicated peptides for 60 min at 22° C., and the resulting intracellular cAMP levels were quantified by RIA. Concentration of peptides present during the incubations were: rPTH(1–34), 0.1 mM; rPTH(1–14) 100 mM; secretin(1–27). […] Shown are data (mean±s.e.m.) from one experiment performed in duplicate, and this was repeated twice more with equivalent results.
For studies with the intact and truncated rat PTH-1 receptors, transient transfections of COS-7 cells were performed using DEAE-dextran as described previously (Bergwitz, C., et al., J. Biol. Chem. 272:28861–28868)). The construction and initial characterization of the pCDNA-1 based plasmids encodin either the intact or truncated rat PTH-1 receptor has been described previously (Lee, C., et al., Endocrinology 135(4):1488–1495)). […] The truncated rat PTH-1 receptor (rΔNt) is deleted for exons E1 through exon G (residues 26 to 181). Assuming that signal peptidase cleavage occurs between Ala-22 and Tyr-23 (Nielsen, H., et al., Protein Engineering 10:1–6 (1997)), rΔNt is predicted to have for its N-terminus residues Dautzenberg, F., et al., Proc. Natl. Acad. Sci. 95:4941–4946 (1998); Holtmann, M., et al., J. Biol. Chem. 270:14394–14398 (1995); DeAlmeida, V. and Mayo, K., Mol. Endo. 12:750–765 (1998)) joined to Glu-182 (FIG. 3B). COS-7 cells were transfected in 24-well plates when the cells were 85 to 95% of confluency, using 200 ng of plasmid DNA that was purified by cesium chloride/ethidium bromide gradient centrifugation for each well. Assays were conducted 72 to 96 hours after transfection. Under these conditions about ˜20% of the COS-7 cells become transfected and express about 5×10^6 surface PTH receptors per cell (Bergwitz, C., et al., J. Biol. Chem. 272:28861–28868)).
as §1
Experiments utilized COS-7 cells transfected with either the intact rat PTH-1 receptor (rWT-HA, FIG. 4A) or a truncated rat PTH-1 receptor with most of the amino-terminal extracellular domain deleted (rΔNt, FIG. 4B).

rat secretin receptor = biological target: T3, rat secretin receptor (Rattus norvegicus, UniProt P23811); assay: cAMP response in COS-7 cells transfected with the rat secretin receptor; conditions: secretin(1–27) 1 mM; COS-7 cells transfected with the secretin receptor
T3 construct: expressed in transfected cells; host or cells: COS-7, transient
Procedure: FIG. 6. Specificity of the Truncated Ligand and PTH Receptor. COS-7 cells transiently transfected with either rWT-HA (A), rΔNt (B), or the intact rat secretin receptor (C), were treated with the indicated peptides for 60 min at 22° C., and the resulting intracellular cAMP levels were quantified by RIA. […] 1 mM and secretin(1–13), 100 mM. Shown are data (mean±s.e.m.) from one experiment performed in duplicate, and this was repeated twice more with equivalent results.
as §1
In order to test whether PTH(1–14) and rΔNt retained the appropriate recognition specificity for the corresponding parent ligand, cross-reactivity experiments were done using secretin ligands and the cloned rat secretin receptor. […] Cells expressing rΔNt responded to PTH(1–34) and PTH(1–14) but not to secretin(1–27) (1 mM) or secretin(1–13) ([…]) (FIG. 5B). Thus, the recognition specificity of PTH(1–14) and rΔNt appear to replicate that of the intact parent molecules. No evidence for relaxed specificity was detected in these studies (FIG. 6).

T3 sequence (P23811 26-449): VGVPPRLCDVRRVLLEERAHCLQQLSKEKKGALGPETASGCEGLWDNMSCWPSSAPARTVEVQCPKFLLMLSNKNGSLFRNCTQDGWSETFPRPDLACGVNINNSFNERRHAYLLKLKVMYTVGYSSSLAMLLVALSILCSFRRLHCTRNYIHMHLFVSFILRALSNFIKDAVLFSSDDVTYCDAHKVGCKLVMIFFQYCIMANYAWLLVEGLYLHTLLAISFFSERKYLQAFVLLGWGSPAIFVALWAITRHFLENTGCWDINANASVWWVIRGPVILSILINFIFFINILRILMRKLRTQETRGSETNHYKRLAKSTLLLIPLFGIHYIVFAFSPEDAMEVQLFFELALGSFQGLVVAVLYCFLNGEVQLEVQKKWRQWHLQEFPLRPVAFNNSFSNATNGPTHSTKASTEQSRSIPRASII

PH(1–13): Amino-terminal peptide fragment based on the rat PTH sequence, residues 1–13, C-terminally amidated (AVSEIQLMHNLGK-NH2)
increase in cAMP accumulation (in words) (human PTH-1 receptor): little or no increase

PTH(1–15): Amino-terminal peptide fragment based on the rat PTH sequence, residues 1–15, C-terminally amidated (AVSEIQLMHNLGKHL-NH2)
doses required for cAMP activation compared with the dose required for PTH(1–34) (human PTH-1 receptor): five to six orders of magnitude higher
increase in intracellular cAMP levels relative to the basal cAMP level (human PTH-1 receptor; 60 min at 22° C.): about 20 fold

secretin(1–13): truncated secretin ligand used in cross-reactivity experiments (HSDGTFTSELSRL; not fully specified (C-terminus); ends and bridges not checked; UniProt P09683 28-40, looked up, fragment)
cAMP response of cells expressing rΔNt (in words) [1]: not

secretin(1–27): secretin ligand used in cross-reactivity experiments
increase in cAMP levels (rat secretin receptor): 50 fold
cAMP response of cells expressing rΔNt (in words) [1]: not
